The results in this text go back to paper PMC4937327.

Where two headings read alike, the source gives them in different places.

Test [1] deals with PtAUREO1c (aureochrome 1c from Phaeodactylum tricornutum), full length (Phaeodactylum tricornutum). Briefly: MST.
Test [2] has as its target PtAUREO1a bZIP-A′α-LOV-Jα functional module (residues D145-D378) (Phaeodactylum tricornutum). Put plainly: MST.
For test [3] the target is unchanged. Briefly: MST. This is another data set of the same source.
Test [4] shares this target. Put plainly: SEC. In general terms: Size exclusion chromatography separates by hydrodynamic size, large species first.
Test [5] shares this target. Put plainly: SEC. The source holds these as a separate data set.
Test [6] has the same target. Briefly: SAXS.

Broadly, the Kd is a measure of binding affinity in units of concentration. A higher Kd goes with weaker binding. In the case of “PtAUREO1a (aureochrome 1a from Phaeodactylum tricornutum), full length (natural protein)”, in test [1], the Kd stood at 240 nM.

With “dsDNA/bZIP-A′α-LOV-Jα complex (PtAUREO1a bZIP-A′α-LOV-Jα dimer bound to dsDNA)”, the Kd in test [2] turned out to be 800 nM; in test [3], 2600 nM.

Broadly, the stoichiometry N is a count of units in the complex or per binding partner. As for “PtAUREO1a bZIP-A′α-LOV-Jα functional module (residues D145-D378) (domain or fragment)”, the stoichiometry N in test [4], in test [5] and in test [6] was 2 each time. Moreover, the results for the Kd in test [2] and in test [1] were 240 to 280 nM and 450 nM, respectively.
